The source of these data is patent US9403896B2, “Serpin-finger fusion polypeptide” (Hoffmann-La Roche Inc., priority 2010, dated 2016).

Assay [1] deals with T1, HIV HR1 polypeptide (Human immunodeficiency virus type 1 group M subtype B, UniProt P04578).
T1 construct: made in house; host or cells: chemical peptide synthesis (no expression host)
Briefly: biochemical. Format: binding. To be noted: for kon: read-out: ka. On the procedure:
All surface plasmon resonance measurements were performed on a BIAcore 3000 instrument (GE Healthcare Biosciences AB, Sweden) at 25° C. Chemically prepared HIV HR1 peptide (heptad repeat 1; Biotin-[…] Q-NH2 (SEQ ID NO: 87)) was immobilized on a CM5 biosensor chip according to the manufacturer instructions (GE Healthcare Biosciences AB, Sweden). The fusion polypeptide was diluted to a concentration of 25 nM and injected over 5 minutes at a flow rate of 50 μl/min. Thereafter the protein complex obtained from different combined fractions was diluted into the same buffer to concentrations of 250 nM and 80 nM and injected over 5 minutes at a flow rate of 50 μl/min. Afterwards the sensor chip was regenerated for 1 minute with PBS, pH 8.0, 0.005% (v/v) Tween 20. Data analysis was performed with the BIAevaluation software (BIAcore, Sweden) (see FIG. 4).

Assay [2] deals with HIV cell-cell-membrane fusion. Put plainly: cell-cell-fusion-assay (CCF-assay), antiviral activity. It is filed as cell-based. The text has this:
The amino acid sequence of fusion polypeptide FP-1 is SEQ ID NO: 76, the amino acid sequence of fusion polypeptide FP-2 is SEQ ID NO: 77, and the amino acid sequence of fusion polypeptide FP-3 is SEQ ID NO: 78. In the fusion polypeptides FP-1 to FP-3 the same serpin-finger polypeptide is conjugated to different HIV fusion inhibitor polypeptides. The fusion polypeptide FP-3 is expressed better in E. coli than FP-2 and in turn FP-2 is expressed better than the fusion polypeptide FP-1. The same sequence of the fusion polypeptides is obtained for the binding to target HIV HR-1 polypeptide (FP-3>FP-2>FP-1) in a BIAcore assay. The same sequence has also been found for the anti-viral activity in a cell-cell-fusion-assay (CCF-assay).

[3] abbreviates: BIAcore 3000, 25° C., HR1 peptide immobilized on CM5 chip.

Read-outs that look alike come from different tables or passages of the source.

T1 sequence (P04578 540-590): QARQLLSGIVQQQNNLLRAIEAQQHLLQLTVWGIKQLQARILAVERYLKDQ

With `CC[C@H](C)[C@H](NC(=O)[C@H](CC(C)C)NC(=O)[C@H](CO)NC(=O)[C@H](Cc1c[nH]cn1)NC(=O)[C@@H](NC(=O)[C@H](CC(C)C)NC(=O)[C@H](CO)NC(=O)[C@@H](NC(=O)[C@H](Cc1ccc(O)cc1)NC(=O)[C@H](CC(N)=O)NC(=O)[C@H](CC(N)=O)NC(=O)[C@@H](NC(=O)[C@H](CCC(=O)O)NC(=O)[C@H](CCCNC(=N)N)NC(=O)[C@H](CC(=O)O)NC(=O)[C@H](Cc1c[nH]c2ccccc12)NC(=O)[C@H](CCC(=O)O)NC(=O)[C@H](CCSC)NC(=O)[C@H](Cc1c[nH]c2ccccc12)NC(=O)[C@@H](NC(=O)[C@@H](N)CCSC)[C@@H](C)O)[C@@H](C)CC)[C@@H](C)O)[C@@H](C)CC)C(=O)N[C@@H](CCC(=O)O)C(=O)N[C@@H](CCC(=O)O)C(=O)N[C@@H](CO)C(=O)N[C@@H](CCC(N)=O)C(=O)N[C@@H](CC(N)=O)C(=O)N[C@@H](CCC(N)=O)C(=O)N[C@@H](CCC(N)=O)C(=O)N[C@@H](CCC(=O)O)C(=O)N[C@@H](CCCCN)C(=O)N[C@@H](CC(N)=O)C(=O)N[C@@H](CCC(=O)O)C(=O)N[C@@H](CCC(N)=O)C(=O)N[C@@H](CCC(=O)O)C(=O)N[C@@H](CC(C)C)C(=O)N[C@@H](CC(C)C)C(=O)O` [T-651, reference compound], the kon in assay [1] (setting [3]) is 1.65e+06 M⁻¹ s⁻¹.
What is called IC50 is the concentration needed to halve the response being measured. A word on the Kd: it is the concentration at which binding is half-saturated. Low readings indicate a tighter complex, high ones a looser complex. For “FP-2: SEQ ID NO: 77=GR+SEQ ID NO: 82+SEQ ID NO: 75+SEQ ID NO: 13; serpin-finger, linker, T-651 (GRGTEAAGAMFLEAIPMSTTWMEWDKEINNYTSLIHSLIEESQNQQEKNEQELL)”, 330 nM corresponded to half-maximal inhibition in assay [2] (IC50). For the same molecule, in assay [1], the KA turned out to be 1.08e+10 M⁻¹, the Kd turned out to be 0.0924 nM, the ka amounted to 1.29e+06 M⁻¹ s⁻¹ and the kd came to 0.000119 s⁻¹.
Molecule `CC[C@H](C)[C@H](NC(=O)[C@H](CCC(N)=O)NC(=O)[C@H](C)NC(=O)[C@H](CCC(N)=O)NC(=O)[C@H](CCC(=O)O)NC(=O)[C@H](CC(C)C)NC(=O)[C@H](CC(C)C)NC(=O)[C@H](C)NC(=O)[C@@H](NC(=O)[C@@H](NC(=O)[C@H](CCCCN)NC(=O)[C@H](CCC(N)=O)NC(=O)[C@H](CCC(=O)O)NC(=O)[C@H](Cc1c[nH]c2ccccc12)NC(=O)[C@H](CCC(=O)O)NC(=O)[C@H](CCC(N)=O)NC(=O)[C@H](Cc1c[nH]c2ccccc12)NC(C)=O)[C@@H](C)CC)[C@@H](C)O)C(=O)N[C@@H](CCC(N)=O)C(=O)N[C@@H](CCC(N)=O)C(=O)N[C@@H](CCC(=O)O)C(=O)N[C@@H](CCCCN)C(=O)N[C@@H](CC(N)=O)C(=O)N[C@@H](CCC(=O)O)C(=O)N[C@@H](Cc1ccc(O)cc1)C(=O)N[C@@H](CCC(=O)O)C(=O)N[C@@H](CC(C)C)C(=O)N[C@@H](CCC(N)=O)C(=O)N[C@@H](CCCCN)C(=O)N[C@@H](CC(C)C)C(=O)N[C@@H](CC(=O)O)C(=O)N[C@@H](CCCCN)C(=O)N[C@@H](Cc1c[nH]c2ccccc12)C(=O)N[C@@H](C)C(=O)N[C@@H](CO)C(=O)N[C@@H](CC(C)C)C(=O)N[C@@H](Cc1c[nH]c2ccccc12)C(=O)N[C@@H](CCC(=O)O)C(=O)N[C@@H](Cc1c[nH]c2ccccc12)C(=O)N[C@@H](Cc1ccccc1)C(N)=O` [T-1249, reference compound] had a kd in assay [1] (setting [3]) of 0.00127 s⁻¹.
Consider `CC[C@H](C)[C@H](NC(=O)[C@H](C)NC(=O)[C@H](CCCNC(=N)N)NC(=O)[C@H](CC(=O)O)NC(=O)[C@H](Cc1c[nH]c2ccccc12)NC(=O)[C@H](C)NC(=O)[C@H](CCC(=O)O)NC(=O)[C@H](Cc1c[nH]c2ccccc12)NC(=O)[C@@H](NC(=O)[C@@H](N)[C@@H](C)O)[C@@H](C)O)C(=O)N[C@@H](C)C(=O)N[C@@H](CCC(=O)O)C(=O)N[C@@H](Cc1ccc(O)cc1)C(=O)N[C@@H](C)C(=O)N[C@@H](C)C(=O)N[C@@H](CCCNC(=N)N)C(=O)N[C@H](C(=O)N[C@@H](CCC(=O)O)C(=O)N[C@@H](C)C(=O)N[C@@H](CC(C)C)C(=O)N[C@H](C(=O)N[C@@H](CCCNC(=N)N)C(=O)N[C@@H](C)C(=O)N[C@@H](C)C(=O)N[C@@H](CCC(N)=O)C(=O)N[C@@H](CCC(=O)O)C(=O)N[C@@H](CCC(N)=O)C(=O)N[C@@H](CCC(N)=O)C(=O)N[C@@H](CCC(=O)O)C(=O)N[C@@H](CCCCN)C(=O)N[C@@H](CC(N)=O)C(=O)N[C@@H](CCC(=O)O)C(=O)N[C@@H](C)C(=O)N[C@@H](C)C(=O)N[C@@H](CC(C)C)C(=O)N[C@@H](CCCNC(=N)N)C(=O)N[C@@H](CCC(=O)O)C(=O)N[C@@H](CC(C)C)C(=O)O)[C@@H](C)CC)[C@@H](C)CC` [T-2635, reference compound], for which the kon in assay [1] worked out at 1.11e+06 M⁻¹ s⁻¹.

B1: FP-1: SEQ ID NO: 76=GR+SEQ ID NO: 05+SEQ ID NO: 52+SEQ ID NO: 37; serpin-finger, linker, T-1249 (protein)
chain: GRTEAAGAMFLEAIPMSGGGGSGGGGSGGGGTWQEWEQKITALLEQAQIQQEKNEYELQKLDKWASLWEWF
In assay [2], B1 gave an IC50 of 700 nM. In assay [1], this molecule had a KA of 6.29e+08 M⁻¹, a Kd of 1.59 nM, a ka of 227000 M⁻¹ s⁻¹ and a kd of 0.000361 s⁻¹.

B2: FP-3: SEQ ID NO: 78=GR+SEQ ID NO: 83+SEQ ID NO: 50+SEQ ID NO: 40; serpin-finger, linker, T-2635 (protein)
chain: GKSGTEAAGAMFLEAIPMSGGGGSGGGGSGGGGTTWEAWDRAIAEYAARIEALIRAAQEQQERNEAALREL
B2 registered an IC50 in assay [2] of 200 nM. For the same molecule, in assay [1], the KA was determined as 3.22e+10 M⁻¹, the Kd came out at 0.031 nM, the ka is 991000 M⁻¹ s⁻¹ and the kd came to 3.07e-05 s⁻¹.
